From patent publication US20110135636A1 (SYMPHOGEN A S, published 2011)

Experiments:
[1] = target: T1, wild type full length EGFR purified from A431 cells (human, UniProt P00533 25-1210); assay: competition ELISA, competitor Ab-1; set-up: concentration or dose not given beside the values
T1 construct: mature; Bought; coated on ELISA wells; also called full length EGFR receptor antigen; Sigma E3641
Experimental: (§1) The ELISA was adapted from the descriptions published in Ditzel et al, 1995, The Journal of Immunology, Vol 154, Issue 2 893-906.
(§2) An epitope blocking ELISA was performed by diluting full length EGFR receptor antigen to 0.5 μg/ml in PBS; and coating 50 μl/ELISA well overnight at 4° C. […] Finally wells were washed four times with PBS-T and plates were developed by adding 50 μl/well TMB and read at 620 nm every 5-15-30 min. The degree of inhibition was calculated from the formula: % inhibition=(1−(OD competition/OD no competition (PBS)))×100.

[2] = target: T1, wild type full length EGFR purified …; assay: competition ELISA, competitor ICR10; set-up: concentration or dose not given beside the values
Experimental: as §1, §2

[3] = target: T1, wild type full length EGFR purified …; assay: competition ELISA, competitor Ab-11; set-up: concentration or dose not given beside the values
Experimental: as §1, §2

[4] = target: T2, EGFRvIII (deletion mutant EGFR) (human, UniProt P00533 25-645, limits assumed); assay: EGFRvIII ELISA (Example 1)
T2 construct: also called deltaEGFR; rhEGFRvIII

[5] = target: T1, wild type full length EGFR purified …; assay: competition ELISA, competitor Ab-2; set-up: concentration or dose not given beside the values
Experimental: as §1, §2

[6] = target: T3, recombinant human EGFR extracellular domain with 6xHis (human, UniProt P00533 25-645); assay: SPR competition, competitor 1308
T3 construct: In-house produced; also called 6xHis EGFR ECD; soluble human EGFR ECD; not shown: 6xHis tag
Experimental: SPR analysis was performed on a Biacore 3000 machine containing four flow cells. A CM5 Biacore chip was conjugated with 10,000 Resonance units (Ru) polyclonal anti-His antibody to flow cells 1-4 according to the manufacturer's instructions. […] Immediately after antigen injection the maximal binding of the Anti-EGFR mAb without competition was established in each flow cell during a reference run. Briefly 5 μl antibody at a concentration of 40 μg/ml was injected over all flow cells with captured EGFR followed by stripping of the antibody/antigen complex with a low pH acid wash (10 sec. contact time with 10 mM Glycine-HCl, pH2). After the determination of Anti-EGFR antibody maximal binding to each flow cell, a competition run was performed during the same Biacore cycle. Flow cells were first saturated with EGFR ECD antigen followed by injection of different reference antibodies or Anti-EGFR antibodies into separate flow cells using the same antigen saturating conditions as outlined above. This step was immediately followed by a second injection of Anti-EGFR antibody over the flow cell saturated with EGFR antigen and competition antibody to minimize the dissociation of either antigen or blocking antibody. Then the antibody/antigen complexes were stripped off with a low pH acid wash (10 sec. contact time with 10 mM Glycine-HCl, pH 2) and the whole cycle beginning with the reference run was repeated with a new Anti-EGFR antibody. The degree of inhibition of tested Anti-EGFR antibodies were determined by comparing the Ru max value of the individual Anti-EGFR antibody before and after competition by introduction of report points recorded two seconds before and after injection of each sample.

[7] = target: T1, wild type full length EGFR purified …; assay: competition ELISA, competitor Ab-10; set-up: concentration or dose not given beside the values
Experimental: as §1, §2

[8] = target: T1, wild type full length EGFR purified …; assay: competition ELISA, competitor Ab-5; set-up: concentration or dose not given beside the values
Experimental: as §1, §2

[9] = target: T4, Cynomolgus EGFR extracellular domain (Cynomolgus monkey (Macaca fascicularis), UniProt P55245 25-645 (rhesus entry)); assay: ELISA on cynomolgus EGFR ECD (Example 10)
T4 construct: Cloned without signal peptide; also called Cynomolgus rEGFR ECD; Cynomolgus EGFR ECD
In short: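 Wells coated overnight at 4 °C with 1 μg/ml EGFR protein, then given serial four-fold antibody dilutions from 1 μg/ml for 1 h at room temperature. Binding detected with streptavidin-HRP and TMB, read at OD 450 nm.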

[10] = target: T1, wild type full length EGFR purified …; assay: competition ELISA, competitor Ab-3; set-up: concentration or dose not given beside the values
Experimental: as §1, §2

[11] = target: T3, recombinant human EGFR extracellular …; assay: SPR (BIAcore 2000); IgG captured on anti-human Fc, soluble monovalent EGFR ECD injected
Experimental: Kinetic analysis of the full length IgG antibodies of the invention was performed on a BIAcore 2000, employing an assay as described in (Canziani, Klakamp, et al. 2004, Anal. Biochem, 325:301-307) allowing measurement of monovalent affinities of whole IgG molecules against soluble antigen. […] The chip surface was regenerated in between cycles by stripping the captured antibody/antigen complexes with a 10 second injection of 100 mM H₃PO₄. […] The association rate constant (ka) and dissociation constant (kd) were evaluated globally from the generated sensograms with the BIA evaluation software 4.1 provided by the manufacturer.

[12] = target: T3, recombinant human EGFR extracellular …; assay: SPR competition, competitor 1449
In short: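 Read-out: percent inhibition from Ru max of each anti-EGFR mAb with and without prior competitor binding, taken at report points 2 s before and after injection. His-tagged EGFR ECD was captured via anti-His antibody on a CM5 chip.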

Binder | % inhibition [1] [%] | % inhibition [2] [%] | % inhibition [3] [%] | binding result [4] | % inhibition [5] [%] | % inhibition [6] [%] | % inhibition [7] [%] | % inhibition [8] [%] | binding result [9] | % inhibition [10] [%] | Kd [11] [nM] | koff [11] [s⁻¹] | kon [11] [M⁻¹ s⁻¹] | t1/2 [11] [h] | % inhibition [12] [%]
antibody 1308 (antibody, human IgG1, kappa, V domains shown, Chimeric IgG1 kappa) VH: EVQLQQSGAELVRPGSSVKISCKASGYAFSSYWMNWVRQRPGQGLEWIGQIYPGDGDTNYNGKFKGRATLTANKSSSTAYMQLSSLTSEDSAVYFCARRASSLYDVYPYYFDYWGQGTTLTVSS VL: DIQMTQTTSSLSASLGDRVTISCRASQDISNYLNWYQQKPDGTVKVLIYYTSRLHSGVPSRFSGSGSGTDYSLTISNLEQEDIATYFCQQGNTLPYTFGGGTKLEIKR | 4 | 71 | 91 | no binding | 11 | 75 | 12 | 0 | binds | 19 |  |  |  |  | 
antibody 1261 (antibody, human IgG1, kappa, V domains shown, Chimeric IgG1 kappa) VH: EVQLVESGGGLVKPGGSLKLSCAVSGFTFSSYVMSWVRQTPEKRLEWVATITSGGRNIYYLDSVKGRFTISRDNAKNTLYLQMSSLRSEDTAMYYCARHEDYRYDGYYAMDYWGQGTSVTVSS VL: QIVLTQSPAIMSASPGEKVTITCSASSSVSYMHWFQQKPGTSPKLWIYSTSNLASGVPARFSGSGSGTSYSLTISRMEAEDAATYYCQQRSSYPYTFGGGTKLELKR | 3 | 57 | 88 | no binding | 6 | -10 | 13 | 6 | binds | 30 | 18.6 | 0.0032 | 170000 | 0.06 | -20
antibody 1260 (antibody, human IgG1, kappa, V domains shown, Chimeric IgG1 kappa) VH: QVQLKESGPGLVAPSQSLSITCTVSGFSLTTYGVHWVRQPPGKGLEWLGVIWAGGSTNYNSALMSRLSIKKDNSKSQVFLKMNSLQTDDTAMYYCARAYGYNFDYWGQGTTLTVSS VL: DIQMTQTTSSLSASLGDRVTISCSASQGITNYLNWYQQKPDGTVKLLIYYSSSLHSGVPSRFSGSGSGTDYSLTISNLEPEDIATYYCQQYSEIPYTFGGGTKLELKR | 12 | 90 | 92 | no binding | 8 |  | 24 | 17 | binds | 12 | 4.2 | 0.00016 | 37000 | 1.23 | 29
antibody 1284 (antibody, human IgG1, kappa, V domains shown, Chimeric IgG1 kappa) VH: QVQLQQPGAELVKPGASVKLSCKASGYTFTSDWMHWMKQRPGQGLEWIGEINPSNGRSSYNEKFKSKATLTVDKSSSTAYMQLSSLTSEDSAVYYCARIGGIYVETYWGQGTLVTVSS VL: DIVLTQSPASLAVSLGQRATISCRASQSVSTSTYSYMHWYQQKSGQPPKLLIKYASNLESGVPARFSGSGSGTDFTLNIHPVEEEDTATYYCQHSWEIPWTFGGGTKLEIKR | 12 | 88 | 52 | no binding | 26 | 68 | 30 | 31 | binds | 9 | 4.6 | 0.00015 | 32000 | 1.3 | -1
antibody 1257 (antibody, human IgG1, kappa, V domains shown, Chimeric IgG1 kappa) VH: EVQLQQSGPELVKPGASVKIPCKTSGYTFTDYNMAWVKQSHGKSLEWIGDIIPNNGGAIYNQKFKGKATLTVDKSSSTASMELRSLTSEDTAVYFCARKNIYYRYDGAGALDYWGQGTSVTVSS VL: QIVLTQSPAIMSASPGEKVTMTCSASSSVSYIYWYQQKPGSSPRLLIYDASNLASGVPVRFSGSGSGTSYSLTISRMEAEDAATYYCQQWSSYPITFGSGTKLEIKR | 6 | 78 | 92 | no binding | 37 | 27 | 33 | 25 | binds | 77 |  |  |  |  | 15
